# Results reported in PMC4678828, “Binding dynamics of a monomeric SSB protein to DNA: a single-molecule multi-process approach”.
# Changes are numbered by the printed parent chain.
# T1: SsoSSB wild-type (Sulfolobus solfataricus (Methods print …, UniProt Q97W73 1-148))
# T1 sequence: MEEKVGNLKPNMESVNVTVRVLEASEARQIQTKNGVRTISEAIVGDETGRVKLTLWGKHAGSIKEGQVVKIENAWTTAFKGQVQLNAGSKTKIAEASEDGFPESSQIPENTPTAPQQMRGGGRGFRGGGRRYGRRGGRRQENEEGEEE
# T2: A647-SsoSSB A114C (Sulfolobus solfataricus, UniProt Q97W73 1-148, A114C)
# T2 sequence: T1 sequence with A114C
# Columns and labels:
# SsoSSB wild-type [1] = biological target: T1, SsoSSB wild-type; experiment: tryptophan fluorescence quenching; Hill model; 50 mM Tris-HCl pH 7.6, 10 mM KCl, 5% glycerol, 0.1 mg/ml BSA, 5-50 nM DNA, 20 C (PIFE also 65 C); conditions: protein: recombinant; chain copies: 2; single strand
# A647-SsoSSB A114C [2] = biological target: T2, A647-SsoSSB A114C; experiment: ensemble FRET; Hill model, 1.8 ± 0.2; 50 mM Tris-HCl pH 7.6, 10 mM KCl, 5% glycerol, 0.1 mg/ml BSA, 5-50 nM DNA, 20 C (PIFE also 65 C); conditions: protein: recombinant; chain copies: 2; label: 3' Cy3 (amino); single strand
# A647-SsoSSB A114C [3] = biological target: T2, A647-SsoSSB A114C; experiment: ensemble FRET; two-site model, first monomer; 50 mM Tris-HCl pH 7.6, 10 mM KCl, 5% glycerol, 0.1 mg/ml BSA, 5-50 nM DNA, 20 C (PIFE also 65 C); conditions: protein: recombinant; chain copies: 2; label: 3' Cy3 (amino); single strand
# A647-SsoSSB A114C [4] = biological target: T2, A647-SsoSSB A114C; experiment: ensemble FRET; two-site model, second monomer; 50 mM Tris-HCl pH 7.6, 10 mM KCl, 5% glycerol, 0.1 mg/ml BSA, 5-50 nM DNA, 20 C (PIFE also 65 C); conditions: protein: recombinant; chain copies: 2; label: 3' Cy3 (amino); single strand
# SsoSSB wild-type [5] = biological target: T1, SsoSSB wild-type; experiment: fluorescence titration (PIFE); 65 C; Hill 1.4 ± 0.2; 50 mM Tris-HCl pH 7.6, 10 mM KCl, 5% glycerol, 0.1 mg/ml BSA, 5-50 nM DNA, 20 C (PIFE also 65 C); conditions: protein: recombinant; chain copies: 2; label: 3' Cy3 (amino); single strand
# SsoSSB wild-type [6] = biological target: T1, SsoSSB wild-type; experiment: fluorescence titration (PIFE); 20 C, 10 mM KCl; Hill 1.8 ± 0.2; 50 mM Tris-HCl pH 7.6, 10 mM KCl, 5% glycerol, 0.1 mg/ml BSA, 5-50 nM DNA, 20 C (PIFE also 65 C); conditions: protein: recombinant; chain copies: 2; label: 3' Cy3 (amino); single strand
# A647-SsoSSB A114C [7] = biological target: T2, A647-SsoSSB A114C; experiment: single-molecule FRET kinetics; first monomer; kon 0.032 nM-1 s-1, koff ~1.75 s-1; 10 mM KCl; 50 mM Tris-HCl pH 7.6, 10 mM KCl, 5% glycerol, 0.1 mg/ml BSA, 5-50 nM DNA, 20 C (PIFE also 65 C); conditions: protein: recombinant; chain copies: 2; label: 5' biotin, 3' Cy3; single strand
# A647-SsoSSB A114C [8] = biological target: T2, A647-SsoSSB A114C; experiment: single-molecule FRET/PIFE/quenching kinetics; second monomer; kon 0.16 nM-1 s-1, koff 0.31 s-1; 10 mM KCl; 50 mM Tris-HCl pH 7.6, 10 mM KCl, 5% glycerol, 0.1 mg/ml BSA, 5-50 nM DNA, 20 C (PIFE also 65 C); conditions: protein: recombinant; chain copies: 2; label: 5' biotin, 3' Cy3; single strand
# A647-SsoSSB A114C [9] = biological target: T2, A647-SsoSSB A114C; experiment: single-molecule FRET/PIFE/quenching kinetics; S4 pathway, two monomers in one step; kon 0.006 nM-1 s-1, koff 0.33 s-1; 50 mM Tris-HCl pH 7.6, 10 mM KCl, 5% glycerol, 0.1 mg/ml BSA, 5-50 nM DNA, 20 C (PIFE also 65 C); conditions: protein: recombinant; chain copies: 2; label: 5' biotin, 3' Cy3; single strand
# A647-SsoSSB A114C [10] = biological target: T2, A647-SsoSSB A114C; experiment: fluorescence self-quenching titration; 10 mM KCl; Hill 1.4 ± 0.2 in text; Fig 2 legend gives 20 ± 1 nM, Hill 1.3; 50 mM Tris-HCl pH 7.6, 10 mM KCl, 5% glycerol, 0.1 mg/ml BSA, 5-50 nM DNA, 20 C (PIFE also 65 C); conditions: protein: recombinant; chain copies: 2; single strand
binder,measurement,setting,value
TTTTTT (ssDNA) [dT6],Kd,SsoSSB wild-type [1],143 ± 95 nM
CCCCCCCCCCCC (ssDNA) [dC12Cy3],Kd,A647-SsoSSB A114C [2],24 ± 2 nM
same,Kd,A647-SsoSSB A114C [3],37 ± 4 nM
same,Kd,A647-SsoSSB A114C [4],2.8 ± 1 nM
same,Kd,SsoSSB wild-type [5],15 ± 1 nM
same,Kd,SsoSSB wild-type [6],9 ± 1 nM
CCCCCCCCCCCC (ssDNA) [BidC12Cy3],Kd,A647-SsoSSB A114C [7],54 ± 2 nM
same,Kd,A647-SsoSSB A114C [8],~2 nM
same,Kd,A647-SsoSSB A114C [9],~57 nM
CCCCCCCCCCCC (ssDNA) [dC12],Kd,A647-SsoSSB A114C [10],22 ± 1 nM
